# Results published in patent US20240238445A1, “INHIBITORS AND USES THEREOF” (NEURACLE SCIENCE CO., LTD., priority 2021, published 2024).
# Ends that are not written are not given here.
# B1: FB-m6dC (peptide)
# peptide: KNYTYFTTNKETQ
# B2: FB-m7dC (peptide)
# peptide: KNYTYFTTVNKETQ
# B3: FB-m10dN (peptide)
# peptide: KNTYFTTVTVETNKETQ
# B4: FB-m8dN (peptide)
# peptide: KNFTTVTVETNKETQ
# B5: FB-m7dN (peptide)
# peptide: KNTTVTVETNKETQ
# B6: FB-m9dN (peptide)
# peptide: KNYFTTVTVETNKETQ
# B7: FB-m8dC (peptide)
# peptide: KNYTYFTTVTNKETQ
# B8: FB-m9dC (peptide)
# peptide: KNYTYFTTVTVNKETQ
# Target: hFc-fused hLRRC4B and FAM19A5 complex formation (Homo sapiens, UniProt Q7Z5A7)
# Assay: Competitive inhibition assay (IC50), plate coated with LRRC4B(453-576, TT/TT)-hFc
# Type: binding
# Details: Table 14; LRRC4B(453-576, TT/TT)-hFc 100 nM coat; peptide 0.03-1000 nM; read-out: IC50 (nM), Inhibition on Complex Formulation between human LRRC4B protein and recombinant FAM19A5 protein (1 ng/mL)
# Experimental: The in silico analysis provided in Example 9 highlighted that certain T12 and L13 double mutants might be important in improving the binding affinity of the polypeptides of the present disclosure to the FAM19A5 protein. Therefore, the ability of both the wild-type FB-21 peptide (which is the same as the FB-20 peptide described herein except that the FB-21 peptide additionally contains an alanine at the C-terminus) and several FB-21 mutants were tested for their inhibitor effect on hFc-fused hLRRC4B and FAM19A5 complex formation. Briefly, plate was coated with 100 nM of LRRC4B(453-576, TT/TT)-hFc and then 1 ng/ml of rFAM19A5 was incubated at 37° C. in the presence of increasing concentrations of the different FB-21 peptide fragments (0.03, 0.1, 0.3, 1, 3, 10, 30, 100, 300 and 1000 nM). The LRRC4B-bound FAM19A5 levels were measured using HRP-conjugated 1-65 antibody.
row,IC50 [nM],Molecule
1,9.8,GYTYFTTVTVEHFETQPGEEA [FB-21 (H12F13)]
2,9.9,GYTYFTTVTVEIFETQPGEEA [FB-21 (I12F13)]
3,47.9,GYTYFTTVTVEMRETQPGEEA [FB-21 (M12R13)]
4,39,GYTYFTTVTVEPYETQPGEEA [FB-21 (P12Y13)]
5,39.9,GYTYFTTVTVEQRETQPGEEA [FB-21 (Q12R13)]

# Target: T1, FAM19A5 protein (Homo sapiens, UniProt Q7Z5A7)
# Assay: competitive inhibition ELISA, 20 nM peptide, rFAM19A5 5 ng/mL; competitor: coated LRRC4B(36-576)-hFc
# Details: not given
row,Inhibition rate (%),Molecule
1,14.9,B1
2,4.4,B2
3,7.7,B3
4,3.3,B4
5,2,B5
6,2.5,B6
7,5.1,B7
8,16.8,B8

# Target: T1, FAM19A5 protein
# Assay: competitive inhibition ELISA, 20 nM peptide, rFAM19A5 1 ng/mL; competitor: coated LRRC4B(453-576)-hFc
# Details: not given
row,Inhibition rate (%),Molecule
1,5.5,B1
2,0.4,B2
3,0,B3
4,-1.1,B4
5,-1.8,B5
6,-1.6,B6
7,-0.9,B7
8,2.7,B8
